Assay results reported in publication doi:10.1101/2023.03.30.534840.
Values joined by “and” are separate entries in the source; they are usually repeats but may differ in a detail not shown here. Identical values can stand only once.

How the values were obtained:
[1] = molecular target: His-MeSufC (expressed alone in E. coli) (Monocercomonoides exilis); test: SEC
[2] = molecular target: MeSufBC complex (His-MeSufB with MeSufC-HA) (Monocercomonoides exilis); test: SEC
[3] = molecular target: MeSufBC complex (His-MeSufB with MeSufC-HA) (Monocercomonoides exilis); test: SEC; remark: listed apart in the source
[4] = molecular target: MeSufBC complex (His-MeSufB with MeSufC-HA) (Monocercomonoides exilis); test: mass photometry
[5] = molecular target: MeSufBC complex (His-MeSufB with MeSufC-HA) (Monocercomonoides exilis); test: mass photometry; remark: listed apart in the source
[6] = molecular target: His-MeSufB (Monocercomonoides exilis); test: mass photometry
[7] = molecular target: T25-MeSufB (Monocercomonoides exilis); test: two-hybrid
[8] = molecular target: T25-MeSufC (Monocercomonoides exilis); test: two-hybrid

His-MeSufC (expressed alone in E. coli) (enzyme)
stoichiometry N [1]: 2

MeSufBC complex (His-MeSufB with MeSufC-HA)
stoichiometry N (MeSufBC units) [2]: 4 | stoichiometry N (MeSufBC units) [3]: 2 and 4 | stoichiometry N (MeSufBC units) [4]: 2 | stoichiometry N (MeSufBC units) [5]: 2

MeSufC-HA (enzyme)
stoichiometry N (MeSufC per MeSufB) [6]: 1

MeSufC-T18 (natural protein)
β-galactosidase activity (BACTH) [7]: 670 Miller units

B1: EcSufC-T18 (natural protein)
chain: MLSIKDLHVSVEDKAILRGLSLDVHPGEVHAIMGPNGSGKSTLSATLAGREDYEVTGGTVEFKGKDLLALSPEDRAGEGIFMAFQYPVEIPGVSNQFFLQTALNAVRSYRGQETLDRFDFQDLMEEKIALLKMPEDLLTRSVNVGFSGGEKKRNDILQMAVLEPELCILDESDSGLDIDALKVVADGVNSLRDGKRSFIIVTHYQRILDYIKPDYVHVLYQGRIVKSGDFTLVKQLEEQGYGWLTEQQ
β-galactosidase activity (BACTH) [7]: 1040 Miller units

B2: EcSufB-T18 (natural protein)
chain: MSRNTEATDDVKTWTGGPLNYKEGFFTQLATDELAKGINEEVVRAISAKRNEPEWMLEFRLNAYRAWLEMEEPHWLKAHYDKLNYQDYSYYSAPSCGNCDDTCASEPGAVQQTGANAFLSKEVEAAFEQLGVPVREGKEVAVDAIFDSVSVATTYREKLAEQGIIFCSFGEAIHDHPELVRKYLGTVVPGNDNFFAALNAAVASDGTFIYVPKGVRCPMELSTYFRINAEKTGQFERTILVADEDSYVSYIEGCSAPVRDSYQLHAAVVEVIIHKNAEVKYSTVQNWFPGDNNTGGILNFVTKRALCEGENSKMSWTQSETGSAITWKYPSCILRGDNSIGEFYSVALTSGHQQADTGTKMIHIGKNTKSTIISKGISAGHSQNSYRGLVKIMPTATNARNFTQCDSMLIGANCGAHTFPYVECRNNSAQLEHEATTSRIGEDQLFYCLQRGISEEDAISMIVNGFCKDVFSELPLEFAVEAQKLLAISLEHSVG
β-galactosidase activity (BACTH) [8]: 556 Miller units
